The target of this assay is T1, mouse CD47 (mouse) (UniProt Q61735).
T1 sequence (looked up): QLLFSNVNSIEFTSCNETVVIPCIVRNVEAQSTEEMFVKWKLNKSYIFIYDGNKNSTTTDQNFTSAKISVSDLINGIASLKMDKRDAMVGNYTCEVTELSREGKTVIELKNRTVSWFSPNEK
Description: ELISA, coated mouse CD47 ECD Fc, supernatant, anti-c-Myc HRP. In general terms: In an ELISA, binding on a coated surface is turned into a signal by an enzyme label.

Substitutions are numbered along the chain they refer to.

B1: 4RP13-4-5C (designed binder)
hSIRPα IgV domain mutant: EEELQVIQPDKSVSVAAGESAILNCTVTSLIPVGPIQWFRGAGPARELIYNQKHQTFPRVTTVSEQTKRENRDFSISISNITPADAGTYYCVKFRKGSPDTEFKSGAGTELSVRAKPS
As for B1, the mCD47 binding (OD) was found to be 0.116 OD.

B2: 4RP13-3-7B (designed binder)
hSIRPα IgV domain mutant: B1 hSIRPα IgV domain mutant with N24T, I31Y, H54R, Q66S, E70F, R72M
The molecule B2 displayed a mCD47 binding (OD) of 0.152 OD.

B3: 2R-1-10B (designed binder)
hSIRPα IgV domain mutant: B1 hSIRPα IgV domain mutant with N24H, H54N, Q55L, T56I, Q66S, T67G, R72M
B3 registered a mCD47 binding (OD) of 0.086 OD.

B4: 4RP13-3-10B (designed binder)
hSIRPα IgV domain mutant: B1 hSIRPα IgV domain mutant with N24H, I31Y, H54G, Q55R, T56R, Q66S, E70A, R72M
Molecule B4 gave a mCD47 binding (OD) of 0.17 OD.

B5: 2RP-1-3E (designed binder)
hSIRPα IgV domain mutant: B1 hSIRPα IgV domain mutant with N24T, I31W, H54G, T56N, Q66S, E70F, R72M
For B5, the mCD47 binding (OD) was found to be 0.113 OD.

B6: 4RP13-3-4D (designed binder)
hSIRPα IgV domain mutant: B1 hSIRPα IgV domain mutant with N24H, I31L, H54S, Q55K, T56V, Q66S, E70R, R72M
With B6, the mCD47 binding (OD) stood at 0.173 OD.

B7: 2R-1-7B (designed binder)
hSIRPα IgV domain mutant: B1 hSIRPα IgV domain mutant with N24H, T26I, H54I, Q55L, Q66S, R72Y
Take B7: the mCD47 binding (OD) amounted to 0.087 OD.

B8: 2R-1-4B (designed binder)
hSIRPα IgV domain mutant: B1 hSIRPα IgV domain mutant with N24H, I31A, H54L, Q55D, T56S, Q66S, N71S, R72M
Regarding B8, the mCD47 binding (OD) stood at 0.082 OD.

B9: 4RP13-5-6G (designed binder)
hSIRPα IgV domain mutant: B1 hSIRPα IgV domain mutant with N24R, I31T, H54A, Q55K, T56Q, Q66S, R72M, D73I
For the molecule B9, the mCD47 binding (OD) was 0.149 OD.
